Patent publication US7122342 (ZymoGenetics, dated 2006)

T1: protease-activated receptor 4 (PAR4), wild type, expressed on transiently transfected COS-7 cells (human, UniProt Q96RI0 18-385)
T1 sequence: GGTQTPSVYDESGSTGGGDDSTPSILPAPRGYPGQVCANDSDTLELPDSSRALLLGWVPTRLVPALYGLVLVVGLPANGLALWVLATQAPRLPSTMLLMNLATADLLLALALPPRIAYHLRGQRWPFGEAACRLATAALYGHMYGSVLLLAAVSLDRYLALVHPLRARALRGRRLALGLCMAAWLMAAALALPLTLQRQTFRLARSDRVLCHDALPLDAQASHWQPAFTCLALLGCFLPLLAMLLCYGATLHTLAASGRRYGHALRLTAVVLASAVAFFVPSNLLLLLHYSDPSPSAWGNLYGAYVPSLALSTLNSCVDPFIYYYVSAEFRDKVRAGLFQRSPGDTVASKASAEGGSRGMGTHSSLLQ

T2: protease-activated receptor 4 (PAR4), wild type, expressed on transiently transfected COS-7 cells
T2 sequence: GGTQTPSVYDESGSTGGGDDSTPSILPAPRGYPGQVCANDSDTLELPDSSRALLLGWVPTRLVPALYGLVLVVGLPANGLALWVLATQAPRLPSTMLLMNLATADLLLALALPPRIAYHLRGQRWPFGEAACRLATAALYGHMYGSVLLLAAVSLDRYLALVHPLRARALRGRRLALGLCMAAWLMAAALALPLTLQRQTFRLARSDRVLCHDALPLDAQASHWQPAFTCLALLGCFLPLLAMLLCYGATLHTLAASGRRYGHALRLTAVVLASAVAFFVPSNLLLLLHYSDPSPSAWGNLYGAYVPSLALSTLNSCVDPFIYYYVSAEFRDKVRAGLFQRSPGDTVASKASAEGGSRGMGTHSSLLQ

T3: PAR4 mutant R68A, expressed on COS cells
T3 sequence: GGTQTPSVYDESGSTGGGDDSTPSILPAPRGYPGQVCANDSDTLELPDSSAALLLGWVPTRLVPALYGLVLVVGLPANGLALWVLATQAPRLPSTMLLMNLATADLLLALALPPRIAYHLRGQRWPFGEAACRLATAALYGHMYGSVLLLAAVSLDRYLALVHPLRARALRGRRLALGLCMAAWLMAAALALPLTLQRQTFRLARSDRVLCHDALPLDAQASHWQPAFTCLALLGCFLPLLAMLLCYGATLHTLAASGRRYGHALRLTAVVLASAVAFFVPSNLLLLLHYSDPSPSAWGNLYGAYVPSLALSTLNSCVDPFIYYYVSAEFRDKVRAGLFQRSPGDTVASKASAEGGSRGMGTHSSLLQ


target: T1, protease-activated receptor 4 (PAR4), …; test: cell-based or functional assay

Chain of factor IXa (P00740 47-191): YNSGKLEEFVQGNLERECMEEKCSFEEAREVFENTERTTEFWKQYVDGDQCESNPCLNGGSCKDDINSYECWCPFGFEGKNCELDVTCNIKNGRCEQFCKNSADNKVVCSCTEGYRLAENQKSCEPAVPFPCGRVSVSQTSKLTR
Chain of factor IXa (P00740 227-461): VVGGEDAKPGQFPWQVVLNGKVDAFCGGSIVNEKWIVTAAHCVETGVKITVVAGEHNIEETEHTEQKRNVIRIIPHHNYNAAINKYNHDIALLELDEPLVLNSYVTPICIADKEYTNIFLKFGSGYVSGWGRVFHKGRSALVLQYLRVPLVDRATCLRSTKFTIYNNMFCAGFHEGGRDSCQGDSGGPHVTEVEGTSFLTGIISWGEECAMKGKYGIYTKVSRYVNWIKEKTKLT
Chain of plasmin (P00747 20-580): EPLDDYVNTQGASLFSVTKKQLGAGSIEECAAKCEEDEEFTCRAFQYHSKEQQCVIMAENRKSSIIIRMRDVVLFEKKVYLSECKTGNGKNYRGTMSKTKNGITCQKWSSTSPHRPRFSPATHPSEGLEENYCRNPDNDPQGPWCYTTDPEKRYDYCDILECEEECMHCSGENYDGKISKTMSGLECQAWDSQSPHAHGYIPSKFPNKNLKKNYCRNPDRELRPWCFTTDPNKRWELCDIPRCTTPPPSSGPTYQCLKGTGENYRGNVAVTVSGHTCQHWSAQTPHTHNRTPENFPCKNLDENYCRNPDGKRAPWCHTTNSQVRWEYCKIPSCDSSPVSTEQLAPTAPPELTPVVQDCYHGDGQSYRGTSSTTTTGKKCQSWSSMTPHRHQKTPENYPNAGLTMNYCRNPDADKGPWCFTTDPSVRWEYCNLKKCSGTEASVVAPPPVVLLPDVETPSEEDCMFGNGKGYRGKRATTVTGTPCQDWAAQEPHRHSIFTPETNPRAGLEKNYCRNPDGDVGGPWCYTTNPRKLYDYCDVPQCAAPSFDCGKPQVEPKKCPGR
Chain of plasmin (P00747 581-810): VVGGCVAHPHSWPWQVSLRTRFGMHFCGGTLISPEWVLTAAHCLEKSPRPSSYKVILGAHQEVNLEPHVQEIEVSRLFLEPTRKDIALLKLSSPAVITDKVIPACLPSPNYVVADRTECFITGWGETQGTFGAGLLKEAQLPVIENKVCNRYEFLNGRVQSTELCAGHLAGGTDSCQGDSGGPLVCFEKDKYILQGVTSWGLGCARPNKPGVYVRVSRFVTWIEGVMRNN

Row | Molecule | EC50 of activation of PAR4 on COS cells [µM]
1 | GYPGQV [PAR4 activating peptide, hexapeptide GYPGQV] | ~100

target: protease-activated receptor 4 (PAR4), wild type, expressed on transiently transfected COS-7 cells (human) (UniProt Q96RI0); test: cell-based or functional assay

Row | Molecule | phosphoinositide hydrolysis, half-maximal concentration (EC50) [nM]
2 | trypsin (enzyme) | 5
3 | thrombin (alpha-thrombin) (enzyme) | 5

tested on: T2, protease-activated receptor 4 (PAR4), wild type, expressed on transiently transfected COS-7 cells; test: not given

Row | Molecule | phosphoinositide hydrolysis (activation of PAR4)
4 | factor IXa | had little or no activity against PAR4
5 | factor XIa | had little or no activity against PAR4
6 | factor Xa | Small effects, however, were observed with factor Xa at high concentrations (100 nM)
7 | urokinase | had little or no activity against PAR4
8 | factor VIIa | had little or no activity against PAR4
9 | plasmin | had little or no activity against PAR4
10 | elastase | Chymotrypsin and elastase failed to activate PAR4
11 | chymotrypsin | Chymotrypsin and elastase failed to activate PAR4

tested on: T3, PAR4 mutant R68A, expressed on COS cells; test: not given

Row | Molecule | phosphatidylinositol 4,5 diphosphate hydrolysis assay
12 | thrombin (alpha-thrombin) | (R68A) had no effect on PAR4 activation by thrombin or trypsin
13 | trypsin | (R68A) had no effect on PAR4 activation by thrombin or trypsin
